{"source": "paper PMC6474325", "about": "“PPR Protein BFA2 Is Essential for the Accumulation of the atpH/F Transcript in Chloroplasts”", "key": {"BFA2 (MBP-BFA2, mature) [1]": {"biological_target": "T1, BFA2 (MBP-BFA2, mature) (Arabidopsis thaliana, UniProt O65567 62-904)", "T1 sequence": "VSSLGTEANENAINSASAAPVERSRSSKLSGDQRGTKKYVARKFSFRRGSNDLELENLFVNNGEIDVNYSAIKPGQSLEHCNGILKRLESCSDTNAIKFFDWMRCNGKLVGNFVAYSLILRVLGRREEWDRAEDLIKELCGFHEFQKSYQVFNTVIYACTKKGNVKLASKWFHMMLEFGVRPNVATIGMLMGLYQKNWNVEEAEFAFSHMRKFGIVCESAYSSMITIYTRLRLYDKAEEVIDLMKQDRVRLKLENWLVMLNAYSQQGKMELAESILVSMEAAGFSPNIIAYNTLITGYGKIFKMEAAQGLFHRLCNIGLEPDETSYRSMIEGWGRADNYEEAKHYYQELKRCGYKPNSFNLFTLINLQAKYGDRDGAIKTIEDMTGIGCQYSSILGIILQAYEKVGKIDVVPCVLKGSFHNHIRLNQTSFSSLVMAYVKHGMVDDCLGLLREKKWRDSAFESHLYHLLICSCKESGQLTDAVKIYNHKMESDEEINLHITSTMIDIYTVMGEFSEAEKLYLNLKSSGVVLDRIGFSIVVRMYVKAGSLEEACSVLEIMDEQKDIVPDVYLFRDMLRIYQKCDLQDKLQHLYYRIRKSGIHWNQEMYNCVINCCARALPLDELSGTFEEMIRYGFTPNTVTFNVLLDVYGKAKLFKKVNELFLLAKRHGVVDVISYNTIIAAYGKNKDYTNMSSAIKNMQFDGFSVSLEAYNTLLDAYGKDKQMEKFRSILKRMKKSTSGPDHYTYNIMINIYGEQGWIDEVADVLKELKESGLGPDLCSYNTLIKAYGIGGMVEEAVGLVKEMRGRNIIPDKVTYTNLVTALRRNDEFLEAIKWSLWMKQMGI", "assay": "competition; unlabeled ndhA RNA; 1000-fold excess does not affect complex with labeled atpF sRNA; 10 mM HEPES pH 7.5, 20 mM KCl, 2 mM MgCl2, 1 mM DTT, 5% glycerol, 1 ug yeast tRNA, 20 C, 30 min; 6% native PAGE with 2.5% glycerol", "conditions": "protein: recombinant; tags: MBP (pMAL-c5x); label: none; single strand"}, "BFA2 (MBP-BFA2, mature) [2]": {"biological_target": "T1, BFA2 (MBP-BFA2, mature)", "assay": "EMSA; 1 ug tRNA, 2 mM Mg2+; complex detected at protein 3x molar over RNA; 10 mM HEPES pH 7.5, 20 mM KCl, 2 mM MgCl2, 1 mM DTT, 5% glycerol, 1 ug yeast tRNA, 20 C, 30 min; 6% native PAGE with 2.5% glycerol", "conditions": "protein: recombinant; tags: MBP (pMAL-c5x); label: 5'-biotin on probe; single strand"}}}
{"binder": "UUAUGACGAUACUCGGUAGCAUAGAUAUAA (ssRNA)", "note": "[ndhA 5' end sRNA]", "values": [{"measurement": "binding result", "setting": "BFA2 (MBP-BFA2, mature) [1]", "value": "no binding"}]}
{"binder": "UAUAGGCAUUAUUUUUUUUUCU (ssRNA)", "note": "[atpF sRNA (atpF-atpA intergenic)]", "values": [{"measurement": "binding result", "setting": "BFA2 (MBP-BFA2, mature) [2]", "value": "binds"}]}
